Source: patent US20250115669A1, “FGFR1/KLB Targeting Agonistic Antigen-Binding Proteins and Conjugates Thereof with GLP-1R Agonistic Peptides” (SANOFI, priority 2020, published 2025)
Where a chain is given by its changes, count along the chain named. In names and notes the source's numbering stands.

T1: human beta-Klotho (Homo sapiens, UniProt Q86Z14)
T1 sequence (Q86Z14 1-1044): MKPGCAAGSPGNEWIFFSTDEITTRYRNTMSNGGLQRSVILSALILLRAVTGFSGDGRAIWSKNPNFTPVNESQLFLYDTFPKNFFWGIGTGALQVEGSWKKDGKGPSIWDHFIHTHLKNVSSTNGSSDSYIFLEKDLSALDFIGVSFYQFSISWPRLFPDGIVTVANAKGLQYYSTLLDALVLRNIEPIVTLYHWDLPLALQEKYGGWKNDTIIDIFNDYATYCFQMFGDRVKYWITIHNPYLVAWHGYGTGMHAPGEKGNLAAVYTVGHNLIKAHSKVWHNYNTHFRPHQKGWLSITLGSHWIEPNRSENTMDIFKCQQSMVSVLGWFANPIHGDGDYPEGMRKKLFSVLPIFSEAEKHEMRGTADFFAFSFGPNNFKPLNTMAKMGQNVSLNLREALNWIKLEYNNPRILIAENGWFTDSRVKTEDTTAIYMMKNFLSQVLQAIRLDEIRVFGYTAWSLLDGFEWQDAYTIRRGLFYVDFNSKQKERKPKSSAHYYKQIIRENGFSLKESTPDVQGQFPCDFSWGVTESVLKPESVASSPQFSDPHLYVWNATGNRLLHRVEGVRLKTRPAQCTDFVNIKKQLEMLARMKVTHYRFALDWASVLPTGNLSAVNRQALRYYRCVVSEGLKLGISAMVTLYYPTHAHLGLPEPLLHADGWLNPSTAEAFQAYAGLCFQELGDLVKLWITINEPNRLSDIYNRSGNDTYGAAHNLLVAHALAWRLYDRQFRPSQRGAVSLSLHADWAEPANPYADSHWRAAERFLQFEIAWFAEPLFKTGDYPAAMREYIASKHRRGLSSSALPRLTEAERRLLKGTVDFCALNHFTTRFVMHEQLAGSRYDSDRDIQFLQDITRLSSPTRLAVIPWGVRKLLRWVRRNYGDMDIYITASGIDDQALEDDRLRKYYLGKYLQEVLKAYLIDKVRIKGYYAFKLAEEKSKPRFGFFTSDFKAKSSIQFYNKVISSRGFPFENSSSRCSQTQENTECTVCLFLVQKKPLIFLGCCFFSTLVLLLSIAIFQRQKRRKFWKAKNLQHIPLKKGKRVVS

B1: Ab0370: IgG4 PE; 16H7 VL (Y48del, W90H); 16H7 VH (M34V, H52W, I83T, D109E) (antibody)
VH: QVTLKESGPVLVKPTETLTLTCTVSGFSLNNARVGVSWIRQPPGKALEWLAWIFSNDEKSYSTSLKSRLTISKDTSKSQVVLTMTNMDPVDTATYYCARSVVTGGYYYEGMDVWGQGTTVTVSS
light: SYVLTQPPSVSVAPGQTARITCGGNNIGSESVHWYQQKPGQAPVLVVDDSDRPSGIPERFSGSNSGNTATLTISRVEAGDEADYYCQVHDGNSDHVVFGGGTKLTVLGQPKANPTVTLFPPSSEELQANKATLVCLISDFYPGAVTVAWKADGSPVKAGVETTKPSKQSNNKYAASSYLSLTPEQWKSHRSYSCQVTHEGSTVEKTVAPTECS
B2: Ab0305: IgG4 PE; 16H7 VL (N25S, D49Y, D50E, D91T); 16H7 VH (M34V, I83T, D109E) (antibody)
VH: B1 VH with W52H
light: SYVLTQPPSVSVAPGQTARITCGGSNIGSESVHWYQQKPGQAPVLVVYYESDRPSGIPERFSGSNSGNTATLTISRVEAGDEADYYCQVWTGNSDHVVFGGGTKLTVLGQPKANPTVTLFPPSSEELQANKATLVCLISDFYPGAVTVAWKADGSPVKAGVETTKPSKQSNNKYAASSYLSLTPEQWKSHRSYSCQVTHEGSTVEKTVAPTECS
B3: Ab0303: IgG4 PE; 16H7 VL (N25S, D50E, D91T); 16H7 VH (M34V, I83T, D109E) (antibody)
VH: B1 VH with W52H
light: B2 light with Y49D
B4: Ab0315: IgG4 PE; 16H7 VL (D49Y, D91T, N93E); 16H7 VH (M34V, I83T, D109E) (antibody)
VH: B1 VH with W52H
light: B2 light with S25N, E50D, N93E
B5: Ab0304: IgG4 PE; 16H7 VL (D49Y, D50E, D91T); 16H7 VH (M34V, I83T, D109E) (antibody)
VH: B1 VH with W52H
light: B2 light with S25N
B6: Ab0301: IgG4 PE; 16H7 VL (N25S, D49Y, D91T); 16H7 VH (M34V, I83T, D109E) (antibody)
VH: B1 VH with W52H
light: B2 light with E50D
B7: Ab0316: IgG4 PE; 16H7 VL (N25S, D49Y, D91T, N93E); 16H7 VH (M34V, I83T, D109E) (antibody)
VH: B1 VH with W52H
light: B2 light with E50D, N93E
B8: Ab0317: IgG4 PE; 16H7 VL (D50E, D91T, N93E); 16H7 VH (M34V, I83T, D109E) (antibody)
VH: B1 VH with W52H
light: B2 light with S25N, Y49D, N93E
B9: Ab0311: IgG4 PE; 16H7 VL (D49Y, D50E, N93E); 16H7 VH (M34V, I83T, D109E) (antibody)
VH: B1 VH with W52H
light: B2 light with S25N, T91D, N93E
B10: Ab0365: IgG4 PE; 16H7 VL (N25A, D49T, D50E, D91A, N93S); 16H7 VH (M34V, I83T, D109E) (antibody)
VH: B1 VH with W52H
light: B2 light with S25A, Y49T, T91A, N93S
B11: Ab0314: IgG4 PE; 16H7 VL (N25S, D91T, N93E); 16H7 VH (M34V, I83T, D109E) (antibody)
VH: B1 VH with W52H
light: B2 light with Y49D, E50D, N93E
B12: Ab0375: IgG4 PE; 16H7 VL (Y48del, D95E, W90F, S1C, S94C); 16H7 VH (M34V, F54W, I83T, D109E) (antibody)
VH: B1 VH with W52H, F54W
light: B1 light with S1C, H89F, S93C, D94E
B13: Ab0310: IgG4 PE; 16H7 VL (N25S, D50E, N93E); 16H7 VH (M34V, I83T, D109E) (antibody)
VH: B1 VH with W52H
light: B2 light with Y49D, T91D, N93E
B14: Ab0308: IgG4 PE; 16H7 VL (N25S, D49Y, N93E); 16H7 VH (M34V, I83T, D109E) (antibody)
VH: B1 VH with W52H
light: B2 light with E50D, T91D, N93E
B15: Ab0318: IgG4 PE; 16H7 VL (N25S, D50E, D91T, N93E); 16H7 VH (M34V, I83T, D109E) (antibody)
VH: B1 VH with W52H
light: B2 light with Y49D, N93E

Legend:
[1] = molecular target: T2, FGFR1c and co-receptor beta-Klotho (KLB) (Homo sapiens, UniProt P11362+Q86Z14); assay: Luciferase reporter gene assay (iLite FGF21 Assay Ready Cells), FGF21-like signaling; format: cell-based; details: Luciferase gene reporter assay, mean, n=3-7
T2 construct: host or cells: iLite FGF21 Assay Ready Cells (HEK293)

human beta-Klotho = molecular target: T1, human beta-Klotho; assay: SPR off-rate screening of antibody mutants (human beta-Klotho captured by anti-His antibody); format: binding; details: mean, n=3
Summary of the method: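 Off-rates (kd) were obtained by single exponential fitting of dissociation curves. Mutant antibodies at 50 nmol/L flowed over beta-Klotho held by an immobilized anti-His antibody, with 240 sec association and 300 sec dissociation.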

[2] = In vivo PK in transgenic humanized FcRn mice (Tg32); details: 0.3 mg/kg single IV, plasma, noncompartmental analysis
Experimental: In vivo PK studies were conducted in transgenic humanized FcRn mice (Tg32). For these studies, no GLP compliance was claimed.

T2 sequence (P11362 22-820 isoform P11362-2 limits assumed, one chain of several): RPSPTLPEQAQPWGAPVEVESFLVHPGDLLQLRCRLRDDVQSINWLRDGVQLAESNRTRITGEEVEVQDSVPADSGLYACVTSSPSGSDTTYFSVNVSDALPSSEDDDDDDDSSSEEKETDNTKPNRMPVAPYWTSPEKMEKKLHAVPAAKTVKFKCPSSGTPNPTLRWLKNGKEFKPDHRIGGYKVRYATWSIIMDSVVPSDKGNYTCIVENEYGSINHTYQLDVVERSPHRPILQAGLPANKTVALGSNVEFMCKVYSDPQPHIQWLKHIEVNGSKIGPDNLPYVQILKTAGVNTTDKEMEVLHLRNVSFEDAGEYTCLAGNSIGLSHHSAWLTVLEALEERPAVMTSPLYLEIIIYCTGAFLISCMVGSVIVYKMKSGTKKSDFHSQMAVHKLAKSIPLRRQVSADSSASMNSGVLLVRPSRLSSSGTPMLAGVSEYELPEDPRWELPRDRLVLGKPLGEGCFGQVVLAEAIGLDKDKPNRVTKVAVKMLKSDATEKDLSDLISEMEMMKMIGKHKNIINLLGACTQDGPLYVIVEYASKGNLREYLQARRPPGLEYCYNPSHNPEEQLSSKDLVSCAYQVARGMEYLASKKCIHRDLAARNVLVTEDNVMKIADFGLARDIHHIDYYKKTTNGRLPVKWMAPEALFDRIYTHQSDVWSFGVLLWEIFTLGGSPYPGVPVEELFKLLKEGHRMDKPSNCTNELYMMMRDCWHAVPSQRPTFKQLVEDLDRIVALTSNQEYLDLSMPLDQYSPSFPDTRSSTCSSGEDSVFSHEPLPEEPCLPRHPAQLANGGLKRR

| Molecule | HEK293 hFGFR1c + KLB (iLite) Emax [1] [%] | koff human KLB (human beta-Klotho) | t½ [2] [days] |
| --- | --- | --- | --- |
| B1 | 490.05 | – | – |
| B2 | – | invalid fit | – |
| B3 | – | invalid fit | – |
| B4 | – | invalid fit | – |
| B5 | – | invalid fit | – |
| B6 | – | invalid fit | – |
| B7 | – | invalid fit | – |
| B8 | – | invalid fit | – |
| B9 | – | 0.0013 s⁻¹ | – |
| B10 | – | invalid fit | – |
| B11 | – | 0.000402 s⁻¹ | 18 |
| B12 | – | no binding | – |
| B13 | – | 0.00116 s⁻¹ | – |
| B14 | – | 0.0013 s⁻¹ | – |
| B15 | – | invalid fit | – |
